From the supplement of paper PMC9732359
± gives the uncertainty stated by the source.

Assay: protein stability index of a GFP-peptide fusion (yeast GPS) (PSI 1-4); higher = more stable; sorted into four equal gates, so the index is relative within each strain
Outline: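 Plasmids in a pooled yeast library fused tiled 17-residue yeast protein peptides downstream of GFP and also expressed Cherry. Mid-log cultures grown without leucine were sorted into four equal gates by GFP/Cherry fluorescence ratio. Each gate's plasmids were PCR-amplified and Illumina-sequenced, and reads were matched to strains by barcodes. The protein stability index is derived by multiplying each gate's read frequency by its gate number and summing the results.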

Row | Sequence | protein stability index (doa10∆) | protein stability index (pdr5∆) | protein stability index (san1∆) | protein stability index (ubr1∆)
1 | LYRLSTPLRDEVTDKNY [PRP8] | 3.13 ± 0.096 | 2.88 ± 0.066 | 3.02 ± 0.067 | 3.11 ± 0.059
2 | YEAGASHGNPVVDFLKR [FAS1] | 3.17 ± 0.09 | 3.13 ± 0.099 | 3.35 ± 0.07 | 3.25 ± 0.044
3 | VKTSPDAKKCIAACTGV [FAS1] | 2.41 ± 0.12 | 3.02 ± 0.16 | 3.01 ± 0.24 | 2.48 ± 0.08
4 | DHFIHLRNLHMKRMVAQ [SNF12] | 2.78 ± 0.063 | 2.52 ± 0.083 | 2.77 ± 0.062 | 2.45 ± 0.047
5 | PINLKFLQGESPFSITF [YMR129W/POM152] | 2.53 ± 0.079 | 2.1 ± 0.063 | 2.63 ± 0.063 | 2.32 ± 0.071
6 | LVAIFGGQGNTDDYFEE [FAS1] | 3.15 ± 0.12 | 3.48 ± 0.083 | 3.26 ± 0.065 | 3.23 ± 0.064
7 | RAGVTIPSIPNPIANHT [SNF5] | 2.46 ± 0.05 | 2.61 ± 0.039 | 2.43 ± 0.041 | 2.64 ± 0.031
8 | EQHEEKAAEGEEKEEEN [QCR6] | 3.25 ± 0.12 | 2.92 ± 0.18 | 2.98 ± 0.23 | 3.23 ± 0.079
9 | VDDSMELCGQIRSERFK [ITC1] | 2.84 ± 0.072 | 3 ± 0.067 | 3.28 ± 0.086 | 2.94 ± 0.13
10 | IYLSRFLIKASVREINL [SSN8] | 1.83 ± 0.18 | 1.86 ± 0.13 | 2.04 ± 0.13 | 1.25 ± 0.16
11 | FAGVASMNVTLGVPRIK [RPO31] | 2.82 ± 0.095 | 2.78 ± 0.086 | 2.94 ± 0.079 | 2.76 ± 0.064
12 | TSTDFPGFSKDAENEWN [RPC40] | – | 3.1 ± 0.22 | – | –
13 | SIPPATIETFNEAALVV [RPB5] | 3.09 ± 0.18 | 2.46 ± 0.15 | 2.02 ± 0.11 | 3.15 ± 0.13
14 | PDELIKAGVEAISQSLR [PRE5] | 2.83 ± 0.14 | 2.91 ± 0.15 | – | 1.49 ± 0.051
15 | LTQLLSMMSDGIEHFDI [RPO31] | 2.93 ± 0.073 | 3.05 ± 0.085 | 3.1 ± 0.052 | 2.72 ± 0.089
16 | YPSKTLKTDGVRAVSIT [FAS2] | 2.12 ± 0.078 | 2.3 ± 0.087 | 2 ± 0.091 | 2.23 ± 0.061
17 | VKSEVDVQVDAEEKREA [ITC1] | 3.22 ± 0.17 | 2.97 ± 0.21 | 3.12 ± 0.23 | 3.16 ± 0.11
18 | IEIMGILMGFTLKDNIV [RRI1] | 2.46 ± 0.097 | 2.15 ± 0.076 | 2.81 ± 0.12 | 2.55 ± 0.083
19 | TTPVKLGPGIYCDPNTQ [RRP40] | 2.65 ± 0.077 | 2.2 ± 0.076 | 2.74 ± 0.06 | 2.35 ± 0.05
20 | ATPPLKRFKDMEYLSGG [SMC1] | 2.93 ± 0.13 | 2.89 ± 0.09 | 2.99 ± 0.047 | 3.01 ± 0.063
21 | VKSLVDNMITGVTKGYK [RPL9A] | 2.75 ± 0.081 | 3.31 ± 0.14 | 2.92 ± 0.25 | 3.11 ± 0.073
22 | ETHETNISNAKLANFFS [YAR002W/NUP60] | 3.03 ± 0.12 | 3.15 ± 0.11 | 3.15 ± 0.073 | 3.2 ± 0.13
23 | VIDGKLPFMQNAGPNSN [YDL088C/ASM4] | 2.93 ± 0.049 | 3.04 ± 0.054 | 2.91 ± 0.037 | 2.92 ± 0.04
24 | FIENFLTNDTFEKKLSI [YML103C/NUP188] | 3.18 ± 0.22 | 3.12 ± 0.12 | 3.2 ± 0.18 | 3 ± 0.093

Row | Sequence | protein stability index (doa10∆) | protein stability index (pdr5∆) | protein stability index (san1∆) | protein stability index (ubr1∆)
25 | FGQRAVLKFAAHTGATP [RPS0A] | 2.18 ± 0.082 | 2.56 ± 0.07 | 2.45 ± 0.11 | 2.61 ± 0.067
26 | RTLLTEEIEPKLEKLRN [SMC2] | 3.02 ± 0.074 | 3 ± 0.068 | 3.18 ± 0.042 | 3.21 ± 0.054
27 | KVAHTSYKRIYGEYPPT [PRE8] | 3.02 ± 0.062 | 3.14 ± 0.068 | 3.01 ± 0.085 | 3.09 ± 0.049
28 | DYSKPNLPPHYALFLKA [SSN2] | 2.15 ± 0.07 | 2.03 ± 0.073 | 1.78 ± 0.11 | 1.99 ± 0.056
29 | CIQVNCLNCEKSKLFEW [SNM1] | 3.11 ± 0.065 | 3.29 ± 0.058 | 3.13 ± 0.05 | 3.16 ± 0.052
30 | QLKAEEKKILNQFLKIK [SMC1] | 2.8 ± 0.045 | 3.19 ± 0.1 | 2.84 ± 0.09 | 2.99 ± 0.078
31 | VKNNQELDQEYRSCETQ [SMC4] | 2.95 ± 0.2 | – | – | –
32 | SATSKPAFSFGAKPEEK [YJL041W/NSP1] | 3.1 ± 0.15 | 3.31 ± 0.22 | 3.16 ± 0.11 | 2.55 ± 0.14
33 | NVLDYFAESPFFDKTSN [MED6] | 3.46 ± 0.068 | 2.99 ± 0.085 | 2.87 ± 0.062 | 3.04 ± 0.051
34 | ILGKNFDSVIVENLTVA [SMC1] | 2.48 ± 0.08 | 2.15 ± 0.083 | 2.11 ± 0.075 | 2.19 ± 0.054
35 | SKIIVFPRNGKAPEAEQ [RPL13A] | 3.19 ± 0.12 | 3.09 ± 0.12 | 3.06 ± 0.062 | 2.98 ± 0.15
36 | DIEEGPITSKSWEEGTR [MCD1] | – | 2.92 ± 0.19 | 2.99 ± 0.15 | –
37 | YLKDNITLLTRQRELLI [GRR1] | 2.15 ± 0.061 | 2.25 ± 0.069 | 1.84 ± 0.076 | 1.76 ± 0.052
38 | PSMMAPLRDNGLLDESP [YML031W/NDC1] | – | 2.79 ± 0.29 | – | 3.35 ± 0.11
39 | RFPTKFVTQFRHLRRTG [RET1] | 1.41 ± 0.078 | 1.73 ± 0.14 | – | 2.17 ± 0.068
40 | VTDNKTPEMNVTNNVEE [TAF14] | 3.28 ± 0.17 | 3.27 ± 0.12 | 3.35 ± 0.13 | 3.2 ± 0.17
41 | EPIDQNTGIVSSTTGMS [RPT3] | 3.15 ± 0.11 | 2.65 ± 0.22 | 3.39 ± 0.14 | 3.24 ± 0.089
42 | TRKGYIPSSKYAYMMNS [YLR018C/POM34] | 3.08 ± 0.11 | 2.73 ± 0.12 | 2.98 ± 0.21 | 2.65 ± 0.14
43 | TTYTYQQPNPLQDLISV [ROX3] | 1.67 ± 0.059 | 1.81 ± 0.069 | 1.7 ± 0.11 | 2.08 ± 0.1
44 | DRRKARKAYFTAPSSER [RPL26B] | 2.77 ± 0.17 | 2.72 ± 0.16 | 3.12 ± 0.082 | 3.1 ± 0.14
45 | PEKKEMIQEVIVEEDLE [FAS2] | 3.14 ± 0.077 | 3.31 ± 0.089 | 3.35 ± 0.045 | 3.36 ± 0.062
46 | GGAYTVSTAAAATVRST [RPL43A] | 2.1 ± 0.053 | 2.25 ± 0.049 | 1.95 ± 0.069 | 2.14 ± 0.048
47 | IPFQTLYRSIESGEFDF [YJL039C/NUP192] | 1.95 ± 0.061 | 2.27 ± 0.062 | 2.11 ± 0.1 | 1.99 ± 0.032
48 | QKRNAHGYFLQDKEKID [ITC1] | 3.32 ± 0.098 | 3.38 ± 0.071 | 3.28 ± 0.048 | 3.42 ± 0.056

Row | Sequence | protein stability index (doa10∆) | protein stability index (pdr5∆) | protein stability index (san1∆) | protein stability index (ubr1∆)
49 | VTRIINSSEIQSAIRPA [RPL4A] | 2.32 ± 0.083 | 2.54 ± 0.12 | 2.37 ± 0.07 | 2.26 ± 0.096
50 | RDLGDDRVFNVPTIGVV [YJR042W/NUP85] | – | – | 3.41 ± 0.19 | –
51 | TVTSLDVVYALKRQGRT [HHF1] | 3.55 ± 0.18 | 3.26 ± 0.13 | 3.18 ± 0.086 | 2.31 ± 0.076
52 | LLETKLRQQYEIELKKL [SWI1] | 3.01 ± 0.12 | 2.96 ± 0.1 | 3.17 ± 0.069 | 2.92 ± 0.11
53 | YQKKQYKDSLALINDLL [RPN6] | 2.4 ± 0.26 | 2.68 ± 0.19 | 1.82 ± 0.21 | 2.86 ± 0.13
54 | QTDAIKSDEAKWKPVLS [RPN5] | 2.62 ± 0.14 | 2.99 ± 0.19 | 3.27 ± 0.075 | 3.2 ± 0.16
55 | LGLEYIIRLLPINLENN [SRB8] | 1.67 ± 0.07 | 1.33 ± 0.058 | 1.24 ± 0.096 | 1.39 ± 0.061
56 | SLHPLFEQFEKFYEEKL [RPN9] | 2.67 ± 0.24 | 2.9 ± 0.16 | – | –
57 | SSFNFNKNLPFVWLSSE [SWI1] | 3.05 ± 0.046 | 2.32 ± 0.057 | 1.84 ± 0.053 | 2.4 ± 0.033
58 | NKYQYSLKQYAGNLITT [SRP68] | 3.23 ± 0.23 | 1.44 ± 0.14 | 1.7 ± 0.11 | 1.54 ± 0.06
59 | EEVNRCYLRWQHLRNEH [SNF2] | 3.27 ± 0.07 | 3 ± 0.075 | 3.23 ± 0.071 | 3.05 ± 0.075
60 | RLKQVFNRALDQSISKL [NNF1] | 2.05 ± 0.056 | 2.11 ± 0.039 | 1.93 ± 0.043 | 2.16 ± 0.036
61 | PNERKAKQAKIRAGEFD [SNF2] | 3.62 ± 0.12 | 3.66 ± 0.18 | 2.99 ± 0.17 | 3.5 ± 0.14
62 | EDPKRRADTMDFKTDVD [YJL039C/NUP192] | 3.29 ± 0.1 | 3.51 ± 0.086 | 3.4 ± 0.096 | 3.24 ± 0.1
63 | EVTKSSHVENLEEKLYQ [YIL149C/MLP2] | 2.76 ± 0.073 | 2.97 ± 0.072 | 2.93 ± 0.052 | 2.98 ± 0.048
64 | APIPKQLLQRIPNIPPN [GAL11] | 2.69 ± 0.063 | 2.63 ± 0.066 | 2.6 ± 0.07 | 2.54 ± 0.049
65 | SEVGNCSGSGMGGVSAL [FAS2] | 3.15 ± 0.075 | 3.38 ± 0.064 | 3.29 ± 0.056 | 3.31 ± 0.05
66 | DNVNSTTGSIFEKDLMA [BRN1] | 2.98 ± 0.067 | 3.01 ± 0.068 | 3.07 ± 0.071 | 2.99 ± 0.041
67 | KDLTLCRYSCLALERMV [YCS4] | 2.58 ± 0.23 | 2.36 ± 0.2 | – | 1.79 ± 0.13
68 | VVTMSVKSVNDPSQNRL [RPC37] | 2.27 ± 0.19 | 2.56 ± 0.27 | 2.42 ± 0.17 | –
69 | KIQVVDRHIGCVYSGLI [PRE10] | 1.28 ± 0.12 | 1.7 ± 0.29 | – | 1.36 ± 0.14
70 | LESYKTQAKKLYHHTTK [SRP72] | 2.29 ± 0.068 | 2.73 ± 0.096 | 2.02 ± 0.13 | 2.66 ± 0.06
71 | QKVSENFEAVFERLVPR [SMC3] | 2.53 ± 0.28 | – | – | –
